Several values for one entry are separate records, joined by “and”; a condition that tells them apart may be missing. Identical values can stand only once.
B1: His-tagged YidC, purified (natural protein)
chain: MDSQRNLLVIALLFVSFMIWQAWEQDKNPQPQAQQTTQTTTTAAGSAADQGVPASGQGKLISVKTDVLDLTINTRGGDVEQALLPAYPKELNSTQPFQLLETSPQFIYQAQSGLTGRDGPDNPANGPRPLYNVEKDAYVLAEGQNELQVPMTYTDAAGNTFTKTFVLKRGDYAVNVNYNVQNAGEKPLEISSFGQLKQSITLPPHLDTGSSNFALHTFRGAAYSTPDEKYEKYKFDTIADNENLNISSKGGWVAMLQQYFATAWIPHNDGTNNFYTANLGNGIAAIGYKSQPVLVQPGQTGAMNSTLWVGPEIQDKMAAVAPHLDLTVDYGWLWFISQPLFKLLKWIHSFVGNWGFSIIIITFIVRGIMYPLTKAQYTSMAKMRMLQPKIQAMRERLGDDKQRISQEMMALYKAEKVNPLGGCFPLLIQMPIFLALYYMLMGSVELRQAPFALWIHDLSAQDPYYILPILMGVTMFFIQKMSPTTVTDPMQQKIMTFMPVIFTVFFLWFPSGLVLYYIVSNLVTIIQQQLIYRGLEKRGLHSREKKKS

Biological target: E. coli 70S ribosomes (nontranslating, salt-washed) (E. coli)
Assay: co-sedimentation

Row | Kd [nM] | fold lower affinity than SecY for ribosomes | Molecule
1 | 150 |  | SecYHisEG complex, purified, in detergent (from UniProt P0AGA2;P0AG96;P0AG99)
2 |  | 5 times lower and 10 times lower | B1
